Tests used:
Test in all cases: SPR
huFcRI = target: huFcRI
huFcgRIIIA - 158V = target: huFcgRIIIA - 158V
huFcgRIIb = target: huFcgRIIb
muFcgRIII = target: muFcgRIII
muFcgRIIb = target: muFcgRIIb
muFcgRIV = target: muFcgRIV
muFcgRI = target: muFcgRI

muFcgRIV, sequence (A0A0B4J1G0 21-203): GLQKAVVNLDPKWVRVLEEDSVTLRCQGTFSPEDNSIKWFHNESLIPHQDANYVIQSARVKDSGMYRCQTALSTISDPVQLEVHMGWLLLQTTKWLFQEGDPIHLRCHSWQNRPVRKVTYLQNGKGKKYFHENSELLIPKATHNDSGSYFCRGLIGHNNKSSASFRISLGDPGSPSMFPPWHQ

| Kd (huFcRI) [nM] | Kd (huFcgRIIIA - 158V) [nM] | Kd (huFcgRIIb) [nM] | Kd (muFcgRIII) [nM] | Kd (muFcgRIIb) [nM] | Kd (muFcgRIV) [nM] | Kd (muFcgRI) [nM] | Substance |
| --- | --- | --- | --- | --- | --- | --- | --- |
| 19 | 574 | 14500 | 6360 | 1470 | – | – | Control |
| – | – | – | 3660 | 1240 | 253 | – | Hu IgG1 |
| – | – | – | 3960 | 1260 | 43 | 397 | Hu IgG1 afuc |
